Substrate: N#Cc1c[nH]c2nc(N)[nH]c(=O)c12
Test: steady-state kinetics, fluorescence assay of product NADP+
Format: biochemical, Bacillus subtilis
Conditions: co-substrate NADPH

B1: B. subtilis QueF (Bacillus subtilis subsp. subtilis str. 168; E98Q) (protein)
chain: MTTRKESELEGVTLLGNQGTNYLFEYAPDVLESFPNKHVNRDYFVKFNCPEFTSLCPKTGQPDFATIYISYIPDEKMVESKSLKLYLFSFRNHGDFHQDCMNIIMNDLIELMDPRYIEVWGKFTPRGGISIDPYTNYGKPGTKYEKMAEYRMMNHDLYPETIDNR
notes: queF gene in pET-30Xa, expressed in E. coli BL21(DE3); ~160 amino acids, single T-fold domain, homodecamer; active sites at intersubunit interfaces
Km: 67 µM | kcat: 0.0006 s⁻¹

— paper PMC5372742, “Protection of the Queuosine Biosynthesis Enzyme QueF from Irreversible Oxidation by a Conserved Intramolecular Disulfide” (Biomolecules, 2017)
